Target: wild-type α1-antitrypsin (recombinant) (human) (UniProt P01009)
Assay: native MS; 15 μM α1-antitrypsin incubated with TTAI at peptide:protein molar ratios 0.1:1 to 5:1 for 3 days at 37.5°C in phosphate buffer pH 7.4; exchanged into 200 mM ammonium acetate pH 8; nanoelectrospray, Synapt

Chain of UniProt P01009 (P01009 25-418): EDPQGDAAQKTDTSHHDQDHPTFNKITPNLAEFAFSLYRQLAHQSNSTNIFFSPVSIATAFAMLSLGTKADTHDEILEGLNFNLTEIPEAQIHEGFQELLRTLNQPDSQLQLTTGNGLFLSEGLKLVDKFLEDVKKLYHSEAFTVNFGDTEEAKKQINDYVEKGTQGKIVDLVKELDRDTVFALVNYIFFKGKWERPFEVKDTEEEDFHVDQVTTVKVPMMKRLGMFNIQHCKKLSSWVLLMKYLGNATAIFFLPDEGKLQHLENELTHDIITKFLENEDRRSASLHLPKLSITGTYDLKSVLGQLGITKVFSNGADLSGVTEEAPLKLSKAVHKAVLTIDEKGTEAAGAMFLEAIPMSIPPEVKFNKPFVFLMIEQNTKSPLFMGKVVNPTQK

Ac-TTAI-NH2 [reactive loop analogue tetrapeptide Thr-Thr-Ala-Ile (TTAI)]
stoichiometry N: 2 copies

Reference: article PMC4534181
